Measurements as given in PMC6258048 (Biochemical and biophysical research communications, 2014).

B2: Tcf3 (Transcription factor 3) DNA binding B-HLH domain (domain or fragment)
chain: MGHMVHRPWIQDEVLSLEEKDLRDRERRMANNARERVRVRDINEAFRELGRMCQLHLKSDKAQTKLLILQQAVQVILGLEQQVRERNLNPKAACGGRTRIVSAHNSENEL

Columns and labels:
[1] = target: Tcf12 (Transcription factor 12) DNA binding B-HLH domain; experiment: native gel or EMSA
[2] = target: T1, Tcf4 (Transcription factor 4) DNA binding B-HLH domain; experiment: native gel or EMSA
T1 chain: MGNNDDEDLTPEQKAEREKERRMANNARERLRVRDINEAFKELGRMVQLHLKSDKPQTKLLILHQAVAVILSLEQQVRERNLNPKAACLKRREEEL

[3] = target: B2; experiment: native gel or EMSA
[4] = target: the molecule itself; experiment: CD thermal denaturation

B1: Ascl1 (Achaete-scute homolog 1) DNA binding B-HLH domain (domain or fragment)
chain: MASGFGYSLPQQQPAAVARRNERERNRVKLVNLGFATLREHVPNGAANKKMSKVETLRSAVEYIRALQQLLDEHDAVSAAFQAGVLSPEL
binding result [1]: binds | binding result [2]: binds | binding result [3]: binds

B2
binding result [4]: binds
